Laboratory results as given in patent US20150037339A1 (Regeneron, published 2015).

T1: Activin A (human, UniProt P08476 311-426)
T1 construct: Homodimer of two βA subunits; bought from R&D Systems (#338-AC); also called inhibin-βA dimer; human Activin A
T1 sequence: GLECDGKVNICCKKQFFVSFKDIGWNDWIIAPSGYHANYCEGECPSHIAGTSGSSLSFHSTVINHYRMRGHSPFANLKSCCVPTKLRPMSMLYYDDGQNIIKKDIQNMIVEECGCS

T2: Activin B (human, UniProt P09529 293-407)
T2 construct: Homodimer of two βB subunits; R&D Systems #659-AB
T2 chain: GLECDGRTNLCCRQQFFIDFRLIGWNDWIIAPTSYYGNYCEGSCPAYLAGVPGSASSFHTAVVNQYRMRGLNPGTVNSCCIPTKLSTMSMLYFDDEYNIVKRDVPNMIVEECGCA


Key:
Activin A [1] = target: T1, Activin A; assay: SPR, captured mAb, 25C
In short: (§1)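 240 s association, 600 s buffer dissociation; ka, kd fitted; KD (M) = kd/ka; t1/2 (min) = ln2/(60*kd).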

Activin A [2] = target: T1, Activin A; assay: Octet cross-competition; binder on anti-hFc tip; 50 nM hActivin A pre-bound with 1 uM Control 1 (col 10); white box
Procedure: (§2) No. 8,309,082) and Control 3 (MAB3381, available from R&D Systems, Inc., Minneapolis, Minn.) were also included in the assays. All assays were performed at 25° C. with a microtiter plate shaking rate of 1000 rpm in Octet HBST buffer (0.01 M HEPES pH7.4, 0.15M NaCl, 3 mM EDTA, 0.05% v/v Surfactant P20, 0.1 mg/mL BSA) according to manufacturer's instructions (ForteBio Corp., Menlo Park, Calif.). […] Any remaining anti-hFc binding sites on the tips were blocked by incubating the tips in a 50 ug/mL solution of irrelevant antibody for 5 minutes.

Activin A [3] = target: T1, Activin A; assay: Octet cross-competition; binder on anti-hFc tip; 50 nM hActivin A pre-bound with 1 uM H4H10440P2 (col 9); white box
Procedure: as §2

Activin B [4] = target: T2, Activin B; assay: SPR, captured mAb, 25C; 25 C
Procedure: Antibody-antigen association was monitored for 240 seconds while dissociation in buffer was monitored for 600 seconds. Kinetic association and dissociation rate constants were determined by processing and fitting the data using Scrubber software version 2.0c. Binding equilibrium dissociation constants (KD) and dissociative half-lives (t_{1/2}) were then calculated from the kinetic rate constants as: KD (M)=kd/kₐ and t_{1/2} (min)=[ln 2/(60*kd)]. (NB=no binding observed under the conditions used; NT=not tested).

Activin A [5] = target: T1, Activin A; assay: Octet cross-competition; binder on anti-hFc tip; 50 nM hActivin A pre-bound with 1 uM H4H10446P2 (col 1); black box
Procedure: as §2

Activin A [6] = target: T1, Activin A; assay: Octet cross-competition; binder on anti-hFc tip; 50 nM hActivin A pre-bound with 1 uM H4H10430P (col 5); black box
Procedure: as §2

Activin A [7] = target: T1, Activin A; assay: Octet cross-competition; binder on anti-hFc tip; 50 nM hActivin A pre-bound with 1 uM H4H10432P2 (col 7); white box
Procedure: as §2

Activin A [8] = target: T1, Activin A; assay: Octet cross-competition; binder on anti-hFc tip; 50 nM hActivin A pre-bound with 1 uM H4H10429P (col 6); white box
Procedure: as §2

Activin A [9] = target: T1, Activin A; assay: Octet cross-competition; binder on anti-hFc tip; 50 nM hActivin A pre-bound with 1 uM H4H10468P2 (col 2); black box
Procedure: as §2

Activin A [10] = target: T1, Activin A; assay: Octet cross-competition; binder on anti-hFc tip; 50 nM hActivin A mixed with 1 uM Isotype control 13 (-) (col 13); dark grey box
Procedure: as §2

Activin A [11] = target: T1, Activin A; assay: SPR, captured mAb, 37C
In short: as §1

Activin A [12] = target: T1, Activin A; assay: Octet cross-competition; binder on anti-hFc tip; 50 nM hActivin A pre-bound with 1 uM H4H10442P2 (col 3); black box
Procedure: as §2

Activin A [13] = target: T1, Activin A; assay: SPR, captured mAb, 37C; no dissociation observed, kd fixed
In short: as §1

Activin A [14] = target: T1, Activin A; assay: Octet cross-competition; binder on anti-hFc tip; 50 nM hActivin A mixed with 1 uM Isotype control 12 (-) (col 12); dark grey box
Procedure: as §2

Activin A [15] = target: T1, Activin A; assay: Octet cross-competition; binder on anti-hFc tip; 50 nM hActivin A pre-bound with 1 uM Control 3 (col 11); white box
Procedure: as §2

Activin A [16] = target: T1, Activin A; assay: Octet cross-competition; binder on anti-hFc tip; 50 nM hActivin A pre-bound with 1 uM H4H10436P2 (col 8); white box
Procedure: as §2

Activin B [17] = target: T2, Activin B; assay: SPR, captured mAb, 25C
In short: as §1

Activin A [18] = target: T1, Activin A; assay: Octet cross-competition; binder on anti-hFc tip; 50 nM hActivin A pre-bound with 1 uM H4H10430P (col 5); white box
Procedure: as §2

Activin A [19] = target: T1, Activin A; assay: SPR, captured mAb, 25C; no dissociation observed, kd fixed
In short: as §1

Activin B [20] = target: T2, Activin B; assay: SPR, captured mAb, 37C
In short: as §1

Activin A [21] = target: T1, Activin A; assay: Octet cross-competition; binder on anti-hFc tip; 50 nM hActivin A pre-bound with 1 uM H4H10423P (col 4); black box
Procedure: as §2

Row | Binder | Activin A-20 nM (RU) (Activin A [1]) | Kd (Activin A [1]) [pM] | kon (Activin A [1]) [M⁻¹ s⁻¹] | t1/2 (Activin A [1]) [h] | binding response (Activin A [2]) | binding response (Activin A [3]) | binding response (Activin A [5]) | binding response (Activin A [7]) | binding response (Activin A [8]) | binding response (Activin A [9]) | binding response (Activin A [10]) | Activin A-20 nM (RU) (Activin A [11]) | Kd (Activin A [11]) [pM] | kon (Activin A [11]) [M⁻¹ s⁻¹] | t1/2 (Activin A [11]) [h] | binding response (Activin A [12]) | koff (Activin A [13]) [s⁻¹] | binding response (Activin A [14]) | binding response (Activin A [15]) | binding response (Activin A [16]) | other results
1 | H4H10423P (antibody, human IgG4, V domains shown) VH: QVQLQQSGPGLLKPSQTLSLTCAISGDSVSSNSAAWSWIRQSPSRGLEWLGRTYYRANWFNDYALSVKSRITINPVTSTNHFSLQLHSVTPEDTAVYYCAREGALGYYFDSWGQGTLVTVSS VL: not shown | 19.4 | 32.6 | 3.33e+06 | 1.77 | 0.6 | 1.31 | 0.51 | 1.32 | 1.48 | 0.58 | 0.26 | 25.2 | ≤ 12.6 | 3.95e+06 | ≥ 3.85 | 0.59 | ≤ 5e-05 | 0.39 | 0.79 | 1.49 | koff (Activin A [1]): 0.000109 s⁻¹; Kd (Activin B [4]): 61800 pM; koff (Activin B [4]): 0.0302 s⁻¹; kon (Activin B [4]): 489000 M⁻¹ s⁻¹; t1/2 (Activin B [4]): 24 s; binding response (Activin A [6]): 0.28
2 | H4H10442P2 (antibody, human IgG4, V domains shown) VH: QVQLQESGPGLVKPSETLSITCTVSGGSFSSHFWTWIRQPPGKGLEWIGYLHYSGGTSYNPSLKSRVIISVDTSKNQFSLKLNSVTAADTAVYYCARARSGITFGGLIVPGSFDIWGQGTMVTVSS VL: not shown | 31.3 | ≤ 4.55 | 1.1e+07 | ≥ 3.85 | 0.99 | 1.5 | 0.35 | 1.59 | 1.55 | 0.36 | 0.26 | 40.5 | ≤ 3.48 | 1.44e+07 | ≥ 3.85 |  | ≤ 5e-05 | 0.46 | 0.99 | 1.44 | 50 nM Ag Bound (RU) (Activin B [17]): 3.4 RU; binding result (Activin B [17]): no binding (tested: 50 nM); binding response (Activin A [18]): 1.33; koff (Activin A [19]): ≤ 5e-05 s⁻¹; 50 nM Ag Bound (RU) (Activin B [20]): 4.4 RU; binding response (Activin A [21]): 0.27
3 | H4H10468P2 (antibody, human IgG4, V domains shown) VH: QVQLQESGPGLVKPSETLSLTCTVSGGSFSSHFWSWIRQPPGKGLEWIGYIYYSGGTHYNPSLESRVTISVDTSKNQFSLKLNSVTAADTAVYYCARARSGITFGGLIVPGSFDIWGQGTMVTVSS VL: not shown | 21.7 | ≤ 6.36 | 7.86e+06 | ≥ 3.85 | 1.08 | 1.7 | 0.33 | 1.73 | 1.68 |  | 0.28 | 24.5 | ≤ 4.1 | 1.22e+07 | ≥ 3.85 | 0.4 | ≤ 5e-05 | 0.41 | 0.79 | 1.66 | 50 nM Ag Bound (RU) (Activin B [17]): 6.2 RU; binding response (Activin A [18]): 1.41; koff (Activin A [19]): ≤ 5e-05 s⁻¹; 50 nM Ag Bound (RU) (Activin B [20]): 3.4 RU; binding result (Activin B [20]): no binding (tested: 50 nM); binding response (Activin A [21]): 0.41
4 | H4H10446P2 (antibody, human IgG4, V domains shown, also called H4H20446) VH: QVQLQESGPGLVKPSETLSLTCTVSGGSFSSHFWSWIRQPPGKGLEWIGYILYTGGTSFNPSLKSRVSMSVGTSKNQFSLKLSSVTAADTAVYYCARARSGITFTGIIVPGSFDIWGQGTMVTVSS VL: not shown | 24.1 | ≤ 3.88 | 1.29e+07 | ≥ 3.85 | 0.83 | 1.67 |  | 1.68 | 1.61 | 0.36 | 0.26 | 31.5 | ≤ 3.25 | 1.54e+07 | ≥ 3.85 | 0.39 | ≤ 5e-05 | 0.47 | 1.21 | 1.61 | 50 nM Ag Bound (RU) (Activin B [17]): 3.6 RU; binding response (Activin A [18]): 1.39; koff (Activin A [19]): ≤ 5e-05 s⁻¹; 50 nM Ag Bound (RU) (Activin B [20]): 3.8 RU; binding result (Activin B [20]): no binding (tested: 50 nM); binding response (Activin A [21]): 0.33
